These results are taken from paper PMC9723616.

The target of the series is T1, FemX (UniProt Q9EY50 1-336).
T1 sequence: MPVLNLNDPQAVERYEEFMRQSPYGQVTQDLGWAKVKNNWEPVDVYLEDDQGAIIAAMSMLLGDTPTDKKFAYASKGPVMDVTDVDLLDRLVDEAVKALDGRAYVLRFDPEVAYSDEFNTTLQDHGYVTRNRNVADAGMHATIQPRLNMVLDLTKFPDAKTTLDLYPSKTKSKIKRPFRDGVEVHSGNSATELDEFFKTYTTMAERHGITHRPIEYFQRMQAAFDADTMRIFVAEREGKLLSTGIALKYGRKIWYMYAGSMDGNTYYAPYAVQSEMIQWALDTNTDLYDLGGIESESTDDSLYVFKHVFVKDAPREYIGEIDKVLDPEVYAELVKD
Put plainly: competition.

B1: compound 20 (2'F-ANA stem peptidyl-helix, 24 nt) (XNA)
RNA: GGGGCCUUAGCUCAGGCUCCACCA
modifications: 2'F-ANA in stem (14 F); dC at penultimate position (pdCpA); 2'-azido-2'-deoxy A76 joined by triazole to UDP-MurNAc-pentapeptide
Molecule B1 showed a Ki of 221 ± 10 nM.

B2: compound 17 (2'F-RNA stem peptidyl-helix, 24 nt) (XNA)
RNA: GGGGCCUUAGCUCAGGCUCCACCA
modifications: 2'F-RNA in stem (14 F); dC at penultimate position (pdCpA); 2'-azido-2'-deoxy A76 joined by triazole to UDP-MurNAc-pentapeptide
The molecule B2 came in with a Ki of 0.397 ± 0.107 nM.
